# Laboratory results reported in patent EP4796630A2 (Hugel Inc., dated 2026).
# Numbering of substitutions follows the chain as printed. “And” between values parts separate entries of the source, which are not always exact repeats. Equal entries are not always repeated. Where two headings read alike, the source gives them in different places.
# B1: B4 IgG (antibody, V domains shown)
# VH: EVKLVESGGGLVKPGGSLKLSCAASGFTFSNYGMSWVRQTPEKRLEWVATISSGGSYTYYPDSVKGRFTISRDNAKNTLYLQMSSLRSEDTAMYYCARHEGGGNPYFDYWGQGTTLTVSS
# VL: DVLMTQTPLSLPVSLGDQASISCRSSQSLVHSNGNTYLHWYLQKPGQSPKLLIYKVSNRFSGVPDRFSGSGSGTDFTLKISRVEAEDLGVYFCSQNTLVPWTFGGGTKLEIK
# notes: also called B4 IgG1; clone 4
# B2: D3 IgG (antibody, V domains shown)
# VH: EVQLEESGGGLVQPGGSLKLSCAASGFTFSNYGMSWVRQTPDKRLELVATINSNGGTTYYPDSVKGRFTISRDNAKNTLYLQMSSLKSEDSAMYYCARDRDAMDYWGQGTSVTVSS
# VL: B1 VL with L29I, H31N, N33H, H39E, F92Y, S94F, N96G, T97S, L98H
# B3: D6 IgG (antibody, V domains shown)
# VH: EVQLQQSGPELVKPGASVKISCKASGYTFTDYNMHWVKQSHGKSLEWIGYIYPYNGDTGYNQKFKSKATLTVDNSSSTAYMELRSLTSEDSAVYYCVRSGDYWGQGTTLTVSS
# VL: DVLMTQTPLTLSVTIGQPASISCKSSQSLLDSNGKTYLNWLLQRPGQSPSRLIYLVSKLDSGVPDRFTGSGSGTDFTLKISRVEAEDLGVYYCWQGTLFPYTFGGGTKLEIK
# B4: B23 IgG (antibody, V domains shown)
# VH: EVQLQQSGAELVRPGASVKLSCTASGINIKDYYMHWMKQRPEQDLEWIGWIDPGNGDAEYAPKFQGKATMTADTSSNTAYLQLSSLTSEDTAVYYCNEIAYWGQGTLVTVSA
# VL: not shown
# notes: also called B23 IgG1
# B5: D2 IgG (antibody, V domains shown)
# VH: DVKLQESGPGLVKPSQSLSLTCSVTGYSITSGYYWNWIRQFPGNKLEWMGYIRYDGSNNYNPSLKNRISITRDTSKNQFFLKLNSVTTEDTASYYCARDRDSSYYFDYWGQGTALTVSS
# VL: DIVMTQSSSYLSVSLGGRVTITCKASDHINNWLAWYQQKPGNAPRLLISDTTSLETGVPSRFSGSGSGKDYTLSITSLQTEDVATYYCQQYWSAPPTFGGGTKLEIK
# B6: C4 IgG (antibody, V domains shown)
# VH: DVKLQESGPGLVKPSQSLSLTCTVTGYSITSDYAWNWIRQFPGNKLEWMGYISYSVGTRYNPSLKSRISITRDTSKNQFFLLLKSVTNEDTATYFCARKGEYGFAYWGQGTLVTVSA
# VL: DIVMTQSPASLAVSLGQRATISCRASKSVSTSGYSYMHWYQQKPGQPPKLLIYLASNLESGVPARFSGSGSGTDFTLNIHPVEEEDAATYYCQHSRELPLTFGAGTKLELK
# B7: C16 IgG (antibody, V domains shown)
# VH: EVQLQQSGAELARPGASVQMSCKAFGYTFTNYTMHWVRQRPGQGLEWIGFINPSSDYTNYNQKFKDKATLSADKSSSTAYMQLSSLTSEDSAVYYCARRIFYNGRTYAAMDYWGQGTSVTVSS
# VL: B6 VL with T31S
# notes: also called C16 IgG1
# B8: C7 IgG (antibody, V domains shown)
# VH: QVQLVETGGGLVQPKGSLKLSCAASGFTFNTNAMNWVRQAPGKGLEWVARIRSKSNNYATYYADSVKDRFTISRDDSQSLLYLQMNNLKTEDTAMYYCVYGRSYGGLSYWGQGTLVTVSA
# VL: B6 VL with T31S
# notes: also called C7 IgG2a
# B9: C24 IgG (antibody, V domains shown)
# VH: EVKLVESGGGLVQPKGSLKLSCAASGYTFNTYAMNWVRQAPGKGLEWVARIRSKSNNYTTYYADSVKDRFTISRDDSQSMLYLQINNLKTEDTAMYYCVGQILYYYVGSPAWFAYWGQGTLVTVSA
# VL: B6 VL with Y53F, L100W, A104G, L110I
# B10: C16 IgG-HRP conjugate (antibody, V domains shown)
# VH: B7 VH
# VL: B6 VL with T31S
# notes: also called C16-HRP; Cg16 IgG-HRP conjugates
# B11: C14 IgG (antibody, V domains shown)
# VH: B8 VH with Q1E, Q3K, T7S, N56D, Q78P, L80M, S108G
# VL: B6 VL with M4L, M37V
# Experiments:
# recombinant GST-SNAP25FL [1] = target: T1, recombinant GST-SNAP25FL (UniProt P60880 1-206); assay: BLI (Octet Red96), IgG on AMC biosensor, GST-SNAP25FL as analyte; Kdis is the instrument's lowest limit, tentatively given
# T1 construct: range 1-206; also called SNAP25 206; full-length SNAP25; not shown: GST tag
# T1 sequence (P60880 whole entry): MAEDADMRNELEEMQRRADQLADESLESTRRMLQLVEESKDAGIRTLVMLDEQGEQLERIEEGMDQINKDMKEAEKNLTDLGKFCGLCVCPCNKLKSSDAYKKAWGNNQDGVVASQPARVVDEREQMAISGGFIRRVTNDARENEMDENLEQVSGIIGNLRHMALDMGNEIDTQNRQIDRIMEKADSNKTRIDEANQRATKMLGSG
# recombinant GST-SNAP25FL [2] = target: T1, recombinant GST-SNAP25FL; assay: BLI (Octet Red96), IgG on AMC biosensor, GST-SNAP25FL as analyte
# recombinant GST-SNAP25FL [3] = target: T1, recombinant GST-SNAP25FL; assay: BLI (Octet Red96), IgG on AMC biosensor, GST-SNAP25FL as analyte; from tentative Kdis
# [4] = target: T2, endogenous SNAP25197 in total cell lysate of BoNT/A-treated N2-42F cells (mouse, UniProt P60879 1-197); assay: sandwich ELISA, plate coated with B4 IgG, lysate of BoNT/A-treated N2-42F cells
# T2 construct: range 1-197; also called SNAP25197 captured
# T2 sequence (P60879 1-197 limits assumed): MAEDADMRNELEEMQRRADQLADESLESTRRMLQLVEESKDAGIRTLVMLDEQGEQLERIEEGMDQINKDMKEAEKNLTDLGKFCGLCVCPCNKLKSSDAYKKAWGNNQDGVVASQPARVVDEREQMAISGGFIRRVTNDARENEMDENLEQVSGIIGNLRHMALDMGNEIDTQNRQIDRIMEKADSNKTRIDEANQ
# [5] = target: T3, recombinant GST-SNAP25197 (UniProt P60880 1-197); assay: direct ELISA; ratio of A450 with SNAP25197 to A450 with SNAP25FL
# T3 construct: range 1-197; also called BoNT/A-cleaved form of SNAP25
# T3 sequence (P60880 1-197 limits assumed): as the sequence (P60879 1-197 limits assumed) above
# [6] = target: T3, recombinant GST-SNAP25197
# recombinant GST-SNAP25FL [7] = target: T1, recombinant GST-SNAP25FL; assay: BLI (Octet Red96), IgG on AMC biosensor, GST-SNAP25FL as analyte; remark: listed apart in the source
# [8] = target: T3, recombinant GST-SNAP25197; assay: BLI (Octet Red96), IgG on AMC biosensor, GST-SNAP25197 as analyte
# [9] = target: T3, recombinant GST-SNAP25197; assay: as above; remark: listed apart in the source
# [10] = target: T3, recombinant GST-SNAP25197; remark: listed apart in the source
# [11] = target: T2, endogenous SNAP25197 in total cell …; assay: sandwich ELISA on lysate of BoNT/A-treated N2-42F cells
Binder,koff (recombinant GST-SNAP25FL [1]) [s⁻¹],kon (recombinant GST-SNAP25FL [2]) [M⁻¹ s⁻¹],Kd (recombinant GST-SNAP25FL [3]) [pM],binding result [4],Ratio197/206 [5],Kd [6] [pM],koff [6] [s⁻¹],binding result (recombinant GST-SNAP25FL [7]),kon [8] [M⁻¹ s⁻¹],binding result [9],Kd [10],koff [10],kon [10],Kd [8] [pM],koff [8] [s⁻¹],binding result [11]
B1,≤ 1e-07,95100,≤ 0.1,binds,0.83,–,–,–,–,–,–,–,–,–,–,–
B2,–,–,–,–,12.9,≤ 0.9,≤ 1e-07,no binding (tested: up to 1 µM),111000,–,–,–,–,–,–,–
B3,≤ 1e-07,35200,≤ 2.84,–,0.02,–,–,–,–,no binding,–,–,–,–,–,–
B4,≤ 1e-07,95800,≤ 0.1,–,0.92,≤ 3.27,≤ 1e-07,–,25400,–,–,–,–,–,–,–
B5,≤ 1e-07,164000,≤ 0.61,–,0.03,–,–,–,–,no binding,–,–,–,–,–,–
B6,–,–,–,–,919,1.07,1e-07,no binding (tested: up to 1 µM),92800,–,6530 pM and 17800 pM,0.00148 s⁻¹ and 0.0041 s⁻¹,230000 M⁻¹ s⁻¹ and 227000 M⁻¹ s⁻¹,–,–,–
B7,–,–,–,–,996,–,–,no binding (tested: up to 1 µM),1.6e+06,–,6440 pM and 9170 pM,0.00152 s⁻¹ and 0.00215 s⁻¹,236000 M⁻¹ s⁻¹ and 235000 M⁻¹ s⁻¹,1.62,2.57e-06,–
B8,–,–,–,–,1040,1.28,1e-07,no binding (tested: up to 1 µM),77800,–,–,–,277000 M⁻¹ s⁻¹ and 257000 M⁻¹ s⁻¹,–,–,–
B9,–,–,–,–,973,1.15,1e-07,no binding (tested: up to 1 µM),86800,–,9620 pM and 5250 pM,0.00509 s⁻¹ and 0.00241 s⁻¹,529000 M⁻¹ s⁻¹ and 458000 M⁻¹ s⁻¹,–,–,–
B10,–,–,–,–,–,–,–,–,–,–,–,–,–,–,–,binds
B11,–,–,–,–,953,≤ 1.3,≤ 1e-07,no binding (tested: up to 1 µM),76700,–,–,–,–,–,–,–
